Experimental data taken from patent US20200024330A1.

Experiments:
[1] = target: HIV-1 Env of isolate JR-CSF (HIV-1) (UniProt P20871); test: cell-based or functional assay
[2] = target: Env of the clade C HIV-1 pseudoviruses of the cross-clade 162-pseudovirus panel (n = 27); test: cell-based or functional assay
[3] = target: Env of the clade D HIV-1 pseudoviruses of the cross-clade 162-pseudovirus panel (n = 25); test: cell-based or functional assay
[4] = target: Env of the clade G HIV-1 pseudoviruses of the cross-clade 162-pseudovirus panel (n = 15); test: cell-based or functional assay
[5] = target: Env of the clade B HIV-1 pseudoviruses of the cross-clade 162-pseudovirus panel (n = 31); test: cell-based or functional assay
[6] = target: HIV-1 Env of isolate 93IN905 (HIV-1); test: cell-based or functional assay
[7] = target: Env of the clade A HIV-1 pseudoviruses of the cross-clade 162-pseudovirus panel (n = 26); test: cell-based or functional assay
[8] = target: HIV-1 Env of isolate MGRM-C-026 (HIV-1); test: cell-based or functional assay
[9] = target: Env of the clade F HIV-1 pseudoviruses of the cross-clade 162-pseudovirus panel (n = 15); test: cell-based or functional assay
[10] = target: JR-FL gp120 ΔV1/ΔV2 (HIV-1 (isolate JR-FL)); test: ELISA on coated gp120; EC50 by nonlinear regression
[11] = target: WT JR-FL gp120 (HIV-1 (isolate JR-FL)); test: as above
[12] = target: JR-FL gp120 ΔV3 (HIV-1 (isolate JR-FL)); test: as above

B1: PGT-137 (antibody, V domains shown)
VH: EVHLEESGPGLVRPSETLSLTCTASGGSIRGGEWGDSDYHWGWVRHSPEKGLEWIGSIHWRGTTHYNAPFRGRGRLSIDLSRNQFSLRLTSVTAEDTAVYYCVKHKYHDIVMVVPIAGWFDPWGQGLQVTVSS
VL: EIMMTQSPAILSVSPGDRATLSCRASQSVKNNLAWYQKRPGQAPRLLIFDTSSRASGIPARFSGGGSGTEFTLTVNSMQSEDFATYYCQQYEEWPRTFGQGTKVEIK
Primary Neutralization Index (B cell culture well 5345 I1) [1]: 1.1 | Median IC50 against viruses neutralized with an IC50 <50 µg/ml [2]: 0.23 µg/mL | Median IC50 against viruses neutralized with an IC50 <50 µg/ml [3]: 6.3 µg/mL | Median IC50 against viruses neutralized with an IC50 <50 µg/ml [4]: 0.23 µg/mL | Median IC50 against viruses neutralized with an IC50 <50 µg/ml [5]: 8.55 µg/mL | Primary Neutralization Index (B cell culture well 5345 I1) [6]: 3.3 | Median IC50 against viruses neutralized with an IC50 <50 µg/ml [7]: 0.72 µg/mL | Primary Neutralization Index (B cell culture well 5345 I1) [8]: 11.3 | Median IC50 against viruses neutralized with an IC50 <50 µg/ml [9]: 6.23 µg/mL | EC50 [10]: 0.2 µg/mL | EC50 [11]: 0.1 µg/mL | EC50 [12]: 0.1 µg/mL
